What all share (assay): ELISA
One assay concerns the target hNPR1 antigen (human).
Another assay deals with T1, hNPR3 (human, UniProt P17342).
T1 chain: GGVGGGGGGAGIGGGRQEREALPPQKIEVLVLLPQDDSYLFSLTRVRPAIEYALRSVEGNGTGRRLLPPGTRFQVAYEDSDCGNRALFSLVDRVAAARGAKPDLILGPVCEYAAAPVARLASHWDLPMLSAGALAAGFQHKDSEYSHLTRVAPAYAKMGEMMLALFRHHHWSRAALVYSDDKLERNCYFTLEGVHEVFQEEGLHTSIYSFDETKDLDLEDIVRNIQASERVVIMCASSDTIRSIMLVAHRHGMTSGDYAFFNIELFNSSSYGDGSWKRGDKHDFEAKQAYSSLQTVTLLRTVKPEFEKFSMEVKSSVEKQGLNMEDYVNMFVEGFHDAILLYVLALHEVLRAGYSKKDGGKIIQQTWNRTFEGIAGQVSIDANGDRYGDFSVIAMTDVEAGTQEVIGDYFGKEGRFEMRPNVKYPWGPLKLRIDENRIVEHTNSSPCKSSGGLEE

The target of the next assay is T2, hNPR2 (human, UniProt P20594).
T2 chain: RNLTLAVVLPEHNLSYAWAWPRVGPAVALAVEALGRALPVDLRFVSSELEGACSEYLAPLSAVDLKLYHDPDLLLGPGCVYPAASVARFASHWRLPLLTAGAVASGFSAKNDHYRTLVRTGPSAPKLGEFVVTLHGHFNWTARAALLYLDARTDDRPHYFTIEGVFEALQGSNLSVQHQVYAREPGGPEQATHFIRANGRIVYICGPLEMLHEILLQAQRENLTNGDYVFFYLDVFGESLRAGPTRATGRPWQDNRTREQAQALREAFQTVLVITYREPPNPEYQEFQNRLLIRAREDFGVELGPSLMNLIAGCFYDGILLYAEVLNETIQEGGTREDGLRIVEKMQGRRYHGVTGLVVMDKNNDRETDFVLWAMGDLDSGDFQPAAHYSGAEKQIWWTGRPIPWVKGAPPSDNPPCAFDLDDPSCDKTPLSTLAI

Where a chain is given by its changes, count along the chain named.

hNPR1 antigen (human), sequence (chain, as listed by the source): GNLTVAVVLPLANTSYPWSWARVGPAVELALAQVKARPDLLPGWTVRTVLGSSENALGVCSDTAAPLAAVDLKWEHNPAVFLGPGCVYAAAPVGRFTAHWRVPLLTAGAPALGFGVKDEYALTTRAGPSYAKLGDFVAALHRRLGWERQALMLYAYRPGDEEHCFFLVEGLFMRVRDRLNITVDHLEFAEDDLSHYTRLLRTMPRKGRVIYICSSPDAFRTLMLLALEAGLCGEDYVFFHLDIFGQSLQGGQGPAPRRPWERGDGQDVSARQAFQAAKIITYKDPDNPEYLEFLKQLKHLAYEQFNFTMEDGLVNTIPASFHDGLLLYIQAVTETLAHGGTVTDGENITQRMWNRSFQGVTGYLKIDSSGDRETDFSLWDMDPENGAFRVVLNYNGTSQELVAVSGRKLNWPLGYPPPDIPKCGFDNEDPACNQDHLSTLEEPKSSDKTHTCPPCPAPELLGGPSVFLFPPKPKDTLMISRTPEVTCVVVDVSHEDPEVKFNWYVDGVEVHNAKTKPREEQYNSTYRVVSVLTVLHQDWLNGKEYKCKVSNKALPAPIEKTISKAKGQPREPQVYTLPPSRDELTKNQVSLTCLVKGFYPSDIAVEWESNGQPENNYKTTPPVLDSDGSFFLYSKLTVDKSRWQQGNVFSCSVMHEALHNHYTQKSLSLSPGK

B1: RC25 V (antibody, V domains shown)
VH: QVQLVQSGAEVKKPGASVKVSCKASGYTFTNSWIGWFRQAPGQGLEWIGDIYPGGGYTNYNEIFKGKATMTADTSTNTAYMELSSLRSEDTAVYYCSRGIPGYAMDYWGQGTLVTVSS
VL: DIQMTQSPSSLSASVGDRVTMSCKSSQSLLNSGDQKNYLTWYQQKPGKAPKLLIYWASTGESGVPSRFSGSGSGTDFTFTISSLQPEDIATYYCQNDYSYPWTFGQGTKVEIKR
Consider B1, for which the binding result with hNPR1 antigen, with hNPR3 and with hNPR2 was “no binding” each time.

B2: Hu135H3L1 (antibody, V domains shown)
VH: DVKLVESGEGLVKPGGSLRLSCAASGFSISTYGMSWVRQAPGKRLEWVAYINSGGNYIYYADSVKGRFTISRDNAKNSLYLQMNSLRAEDTAVYYCTRDRTTIVVHWYFDVWGQGTTVTVSS
VL: DIQLTQSPSSLSASVGDRVTITCSASSSLNFMHWYQQKPGKSPKRWIYDTSKLASGVPSRFSGSGSGTDYTLTISSLQPEDFATYYCHQRSSTFGGGTKVEIK
As to B2, the binding result with hNPR3 and in the assay with hNPR2 was “no binding” in each case.

B3: Hu102H4L6 (antibody, V domains shown)
VH: B2 VH with S28T, I29F, T31S, G33A, N52S, S53R, N56D, T91S, R100Q, I103V
VL: DIQLTQSPSSLSASVGDRVTITCSASSSINYMHWYQQKPGKSPKRWIYDTSKLASGVPSRFSGSGSGTDYTLTISSLQPEDFATYYCHQRNSYTFGGGTKVEIK
On to B3, for which the binding result in the assay with hNPR3 and with hNPR2 was “no binding” throughout.

B4: Hu128H3L1-6 (antibody, V domains shown)
VH: EVQLVQSGAEVKKPGASVKVSCKASGYTFTSYWMHWVRQAPGQGLEWMGRIDPNSGVTKYNEKFKSRVTLTVDKPSSPAYMELSSLRSEDTAVYYCARSSYLGRYFDVWGQGTTVTVSS
VL: EIVLTQSPATLSLSPGERATLKCSATSSVSYMYWYQQKPGQAPRLLIYDTYNLGSRIPARFSGSGSGTDYTLTISRLEPEDFAVYYCQQWSSYPPTFGQGTKLEIK
For the molecule B4, the binding result with hNPR3 and with hNPR2 was “no binding” throughout.

B5: Hu140H5L5-11 (antibody, V domains shown)
VH: B4 VH with E1Q, S100G, Y101G, G103R
VL: B4 VL with T20Q, K22S, T26S, G54A, R56G, I57V, A59D, D69S, Q99A
For the molecule B5, the binding result with hNPR3 and with hNPR2 was “no binding” in each case.

These data come from US20260365743 (published 2026).
